Test results taken from publication PMC11514477.

Assays:
[1] = molecular target: macroH2A1 (endogenous; collective term for macroH2A1.1 and macroH2A1.2) (mouse (endogenous in C2C12 and MEF)); experiment: proximity ligation; duolink PLA in situ in C2C12 stable knockdown lines (Scramble control, macroH2A2 knockdown); cells extracted before fixation to remove soluble Mcm2; EdU-positive cells; confocal imaging, spots per nucleus counted in FIJI
[2] = molecular target: macroH2A1 (endogenous; collective term for macroH2A1.1 and macroH2A1.2) (mouse (endogenous in C2C12 and MEF)); experiment: proximity ligation; duolink PLA in situ in control C2C12 cells; high-content screening microscopy (Operetta), nuclear spots of the full cell population counted with Harmony

macroH2A1 (endogenous; collective term for macroH2A1.1 and macroH2A1.2) (mouse (endogenous in C2C12 and MEF)), sequence (Q9QZQ8 whole entry): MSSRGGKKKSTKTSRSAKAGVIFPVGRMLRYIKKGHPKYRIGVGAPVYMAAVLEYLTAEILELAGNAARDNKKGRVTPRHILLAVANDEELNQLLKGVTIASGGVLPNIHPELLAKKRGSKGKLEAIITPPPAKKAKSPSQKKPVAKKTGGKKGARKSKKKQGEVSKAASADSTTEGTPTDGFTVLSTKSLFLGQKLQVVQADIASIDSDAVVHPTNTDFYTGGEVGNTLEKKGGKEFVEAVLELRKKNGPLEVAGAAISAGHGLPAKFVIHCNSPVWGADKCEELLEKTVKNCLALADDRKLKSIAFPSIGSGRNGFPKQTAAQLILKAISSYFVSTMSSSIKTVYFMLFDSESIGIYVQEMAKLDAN

For “Mcm2 (subunit of the Mcm DNA helicase complex) (from UniProt P97310 1-904) (natural protein)”, the PLA spots per nucleus (control Scramble cells) (spots per nucleus) [1] was 19.8, the PLA spots per nucleus (macroH2A2 depleted cells) (spots per nucleus) [1] was 18.2 and the PLA spots per nucleus (spots per nucleus) [2] was 15.1.
